# Patent US20240116985A1 (published 2024)
# Starred links: 1 amine or outer side, 2 acyl side, 3 side chain; linkers in the order of their positions; H or OH if unused. Positions of bridges follow the written chain, without caps; N, C: chain ends. Non-standard residues stand in square brackets, D forms with d. Primed or numbered codes have the meaning given here. B5(10) = 2-amino-2-(pent-4-en-1-yl)hept-6-enoic acid, bis(4-pentenyl)glycine, stitching residue bearing both staples, C=CCCCC(CCCC=C)(N[*:1])C(=O)[*:2]; B5(4) = 2,2-bis(4-pentenyl)glycine = 2-amino-2-(pent-4-en-1-yl)hept-6-enoic acid (stitching residue), C=CCCCC(CCCC=C)(N[*:1])C(=O)[*:2]; B5(33) = 2-amino-2-(pent-4-en-1-yl)hept-6-enoic acid (bis-pentenylglycine, two olefin side chains), C=CCCCC(CCCC=C)(N[*:1])C(=O)[*:2]; B5(20) = 2-amino-2-(pent-4-en-1-yl)hept-6-enoic acid = bis(4-pentenyl)glycine, stitching residue, C=CCCCC(CCCC=C)(N[*:1])C(=O)[*:2]; B5(21) = 2-amino-2-(pent-4-en-1-yl)hept-6-enoic acid, bis(4-pentenyl)glycine (stitching residue), C=CCCCC(CCCC=C)(N[*:1])C(=O)[*:2]; B5(6) = 2-amino-2-(pent-4-en-1-yl)hept-6-enoic acid (bis(4-pentenyl)glycine), stitching residue, C=CCCCC(CCCC=C)(N[*:1])C(=O)[*:2]; SeN = (S)-5-(((allyloxy)carbonyl)(methyl)amino)-2-amino-2-methylpentanoic acid, C=CCOC(=O)N(C)CCC[C@](C)(N[*:1])C(=O)[*:2]; (NHiPr)AsnR = N4-isopropyl-L-asparagine, CC(C)NC(=O)C[C@H](N[*:1])C(=O)[*:2]; (NHEt)AsnR = N4-ethyl-L-asparagine, CCNC(=O)C[C@H](N[*:1])C(=O)[*:2]; Phe(2-CONH2) = NC(=O)c1ccccc1C[C@H](N)C(=O)O; Phe(2-OMe) = COc1ccccc1C[C@H](N)C(=O)O; 2Nal = N[C@@H](Cc1ccc2ccccc2c1)C(=O)O; Bta = N[C@@H](Cc1csc2ccccc12)C(=O)O; αAllylPro = C=CC[C@@]1(C(=O)O)CCCN1; Aad = N[C@@H](CCCC(=O)O)C(=O)O; S8 = C=CCCCCCC[C@](C)(N)C(=O)O
# T1: beta-catenin (full-length, Uniprot ID P35222) (Homo sapiens (Human), UniProt P35222 2-781)
# T1 construct: The FP protocol says 'full-length beta-Catenin (Uniprot ID P35222)'; also called bCat; B-Catenin
# T1 sequence: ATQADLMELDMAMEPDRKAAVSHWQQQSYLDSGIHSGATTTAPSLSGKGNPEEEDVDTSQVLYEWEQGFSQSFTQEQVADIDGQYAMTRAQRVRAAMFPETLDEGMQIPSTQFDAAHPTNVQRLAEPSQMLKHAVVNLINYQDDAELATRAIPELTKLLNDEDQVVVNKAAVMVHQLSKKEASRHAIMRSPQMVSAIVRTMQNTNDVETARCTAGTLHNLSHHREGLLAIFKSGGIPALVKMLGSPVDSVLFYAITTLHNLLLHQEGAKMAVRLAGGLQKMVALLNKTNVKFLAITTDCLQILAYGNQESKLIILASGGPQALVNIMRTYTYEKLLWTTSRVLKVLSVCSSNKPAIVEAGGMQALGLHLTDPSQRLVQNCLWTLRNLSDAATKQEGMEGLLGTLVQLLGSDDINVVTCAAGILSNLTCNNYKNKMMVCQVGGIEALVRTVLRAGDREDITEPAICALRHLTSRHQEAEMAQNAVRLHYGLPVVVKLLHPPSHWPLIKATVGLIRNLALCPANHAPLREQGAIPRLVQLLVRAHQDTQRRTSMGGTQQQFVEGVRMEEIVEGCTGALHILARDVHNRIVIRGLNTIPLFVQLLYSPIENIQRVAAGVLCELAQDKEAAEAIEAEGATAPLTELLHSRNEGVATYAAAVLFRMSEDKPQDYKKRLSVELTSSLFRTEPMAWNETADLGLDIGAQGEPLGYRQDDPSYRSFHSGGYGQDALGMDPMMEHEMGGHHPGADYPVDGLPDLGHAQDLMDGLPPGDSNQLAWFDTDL
# T2: full-length beta-Catenin (Uniprot ID P35222) (Homo sapiens (Human), UniProt P35222 1-781)
# T2 construct: also called bCat; B-Catenin
# T2 sequence: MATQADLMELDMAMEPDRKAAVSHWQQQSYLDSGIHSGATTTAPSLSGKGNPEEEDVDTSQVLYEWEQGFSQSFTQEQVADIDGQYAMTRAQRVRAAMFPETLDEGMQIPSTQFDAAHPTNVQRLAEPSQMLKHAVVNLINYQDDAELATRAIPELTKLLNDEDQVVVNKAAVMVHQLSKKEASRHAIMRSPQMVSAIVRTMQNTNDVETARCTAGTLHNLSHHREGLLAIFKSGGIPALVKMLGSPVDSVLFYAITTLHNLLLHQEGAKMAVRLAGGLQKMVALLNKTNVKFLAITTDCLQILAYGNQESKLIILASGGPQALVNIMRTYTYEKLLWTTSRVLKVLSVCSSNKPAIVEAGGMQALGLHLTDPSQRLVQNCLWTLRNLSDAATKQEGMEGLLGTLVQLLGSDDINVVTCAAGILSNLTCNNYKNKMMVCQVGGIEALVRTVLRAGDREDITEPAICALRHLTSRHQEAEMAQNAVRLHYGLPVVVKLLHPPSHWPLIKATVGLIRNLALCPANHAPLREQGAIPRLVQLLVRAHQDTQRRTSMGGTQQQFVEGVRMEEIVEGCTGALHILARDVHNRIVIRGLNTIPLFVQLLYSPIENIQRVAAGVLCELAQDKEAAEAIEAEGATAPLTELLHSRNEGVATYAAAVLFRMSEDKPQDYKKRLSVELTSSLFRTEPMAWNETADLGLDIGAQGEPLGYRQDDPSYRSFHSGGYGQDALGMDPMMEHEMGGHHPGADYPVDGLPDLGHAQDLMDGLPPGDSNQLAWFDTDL
# B1: I-127: Ac-PL3-Asp-Ala-B5-Asp-Gln-Ala-Ala-Phe-Val-S8-Phe-Trp-Gln-NH2 (peptide)
# peptide: XDAXDQAAFVXFWQ
# modifications: not fully specified; N-terminal Ac; PL3 at 1; B5 at 4; S8 at 11; C-terminal NH2; stapled by olefin metathesis (PL3-B5 and B5-S8)
# notes: Stapled peptide
# B2: I-513 (peptide)
# peptide: Ac-[αAllylPro]DA[B5(20)]DEAAFN[S8][Phe(2-CONH2)][Bta]H-NH2
# modifications: staple 1-4, 4-11
# notes: Stapled peptide composition; also called Ac-PL3-Asp-Ala-B5-Asp-Glu-Ala-Ala-Phe-Asn-S8-2CBMF-BztA-His-NH2
# B3: I-512 (peptide)
# peptide: Ac-[αAllylPro]DI[B5(20)]DEAAFN[S8][Phe(2-OMe)][Bta]H-NH2
# modifications: staple 1-4, 4-11
# notes: Stapled peptide composition; also called Ac-PL3-Asp-Ile-B5-Asp-Glu-Ala-Ala-Phe-Asn-S8-2OMeF-BztA-His-NH2
# B4: I-514 (peptide)
# peptide: Ac-[αAllylPro]DI[B5(20)]DEAAFN[S8][Phe(2-CONH2)][Bta]H-NH2
# modifications: staple 1-4, 4-11
# notes: Stapled peptide composition; also called Ac-PL3-Asp-Ile-B5-Asp-Glu-Ala-Ala-Phe-Asn-S8-2CBMF-BztA-His-NH2
# B5: I-535 (peptide)
# peptide: Ac-[αAllylPro]DA[B5(21)][(NHiPr)AsnR]DAAFV[S8]F[Bta]Q-NH2
# modifications: staple 1-4, 4-11
# notes: Stapled peptide composition; also called Ac-PL3-Asp-Ala-B5-[NHiPr]AsnR-Asp-Ala-Ala-Phe-Val-S8-Phe-BztA-Gln-NH2
# B6: I-506 (peptide)
# peptide: Ac-[αAllylPro]DL[B5(6)]DEAAFQ[S8]F[Bta]H-NH2
# modifications: staple 1-4, 4-11
# notes: Stapled peptide composition; also called Ac-PL3-Asp-Leu-B5-Asp-Glu-Ala-Ala-Phe-Gln-S8-Phe-BztA-His-NH2
# B7: I-527 (peptide)
# peptide: XDIXDEAAFQXFXQ
# modifications: not fully specified; N-terminal acetyl (Ac); PL3 at X1, B5 at X4 and S8 at X11 stapled (PL3-B5 and B5-S8, olefin metathesis); 2OMeF at X12; BztA at X13; C-terminal amide (NH2)
# notes: Stapled peptide composition; also called Ac-PL3-Asp-Ile-B5-Asp-Glu-Ala-Ala-Phe-Gln-S8-2OMeF-BztA-Gln-NH2
# B8: I-507 (peptide)
# peptide: XDAXDEAAFQXFXT
# modifications: not fully specified; N-terminal acetyl (Ac); PL3 at X1, B5 at X4 and S8 at X11 stapled (PL3-B5 and B5-S8, olefin metathesis); BztA at X13; C-terminal amide (NH2)
# notes: Stapled peptide composition; also called Ac-PL3-Asp-Ala-B5-Asp-Glu-Ala-Ala-Phe-Gln-S8-Phe-BztA-Thr-NH2
# B9: I-528 (peptide)
# peptide: XDIXDEAAFQXFXQ
# modifications: not fully specified; N-terminal acetyl (Ac); PL3 at X1, B5 at X4 and S8 at X11 stapled (PL3-B5 and B5-S8, olefin metathesis); 2OMeF at X12; BztA at X13; C-terminal amide (NH2)
# notes: as for B7
# B10: I-508 (peptide)
# peptide: XDAXDEAAFQXFXT
# modifications: not fully specified; N-terminal acetyl (Ac); PL3 at X1, B5 at X4 and S8 at X11 stapled (PL3-B5 and B5-S8, olefin metathesis); BztA at X13; C-terminal amide (NH2)
# notes: as for B8
# B11: I-536 (peptide)
# peptide: Ac-[αAllylPro]DA[B5(21)][(NHEt)AsnR]DAAFV[S8]F[Bta]Q-NH2
# modifications: staple 1-4, 4-11
# notes: Stapled peptide composition; also called Ac-PL3-Asp-Ala-B5-[NHEt]AsnR-Asp-Ala-Ala-Phe-Val-S8-Phe-BztA-Gln-NH2
# Molecular target: T1, beta-catenin (full-length, Uniprot ID …)
# Experiment: fluorescence polarization competition vs 5FAM-TCF4(10-53) on full-length beta-catenin
# Procedure: (§1) The plate was incubated protected from light for 60 minutes at 20° C. prior to read. Reads were performed on a CLARIOstar plate reader (BMG Labtech) in duplicate, and data were fitted to a 1:1 binding model with hill slope using an in-house script. All provided concentrations are final concentrations.
row,IC50 [nM],Binder
1,2160,"Ac-[αAllylPro]DA[B5(4)]DEAAFV[SeN]FWQ-NH2 (staple 1-4, 4-11, Stapled peptide) [I-131: Ac-PL3-Asp-Ala-B5-Asp-Glu-Ala-Ala-Phe-Val-SeN-Phe-Trp-Gln-NH2]"
2,2270,"Ac-[αAllylPro]DA[B5(21)]DEAAFV[S8]F[2Nal]Q-NH2 (staple 1-4, 4-11, Stapled peptide) [I-140: Ac-PL3-Asp-Ala-B5-Asp-Glu-Ala-Ala-Phe-Val-S8-Phe-2NapA-Gln-NH2]"
3,1980,"Ac-[αAllylPro]DA[B5(10)]D[Aad]AAFV[S8]FWQ-NH2 (staple 1-4, 4-11, Stapled peptide) [I-129: Ac-PL3-Asp-Ala-B5-Asp-Aad-Ala-Ala-Phe-Val-S8-Phe-Trp-Gln-NH2]"
4,2110,"Ac-[αAllylPro]DA[B5(4)]DEAAFV[S8]FWQ-NH2 (staple 1-4, 4-11, Stapled (stitched) peptide) [I-123: Ac-PL3-Asp-Ala-B5-Asp-Glu-Ala-Ala-Phe-Val-S8-Phe-Trp-Gln-NH2]"
5,3060,"Ac-[αAllylPro]DA[B5(33)]DNAAFV[S8]FWQ-NH2 (staple 1-4, 4-11, Stapled peptide) [I-125: Ac-PL3-Asp-Ala-B5-Asp-Asn-Ala-Ala-Phe-Val-S8-Phe-Trp-Gln-NH2]"
6,4840,B1
7,1870,"Ac-[αAllylPro]DA[B5(4)]DEAAFV[S8]FWA-NH2 (staple 1-4, 4-11, Stapled peptide) [I-135: Ac-PL3-Asp-Ala-B5-Asp-Glu-Ala-Ala-Phe-Val-S8-Phe-Trp-Ala-NH2]"

# Molecular target: T2, full-length beta-Catenin (Uniprot ID …)
# Experiment: fluorescence polarization competition; 10 nM full-length beta-catenin + 10 nM 5FAM-TCF4(10-53) probe
# Procedure: as §1
row,EC50 [nM],Binder
1,143,B2
2,20,B3
3,30,B4
4,5000,B5
5,25,B6
6,98,B7
7,192,B8
8,63,B9
9,73,B10
10,4470,B11
